Where “and” joins values, the source holds several entries; their conditions need not be identical. Equal entries are not always repeated.
Target: the molecule itself
Test: cryo-EM structure; purified MS-rings (0.5 mg/ml) in 50 mM Tris-HCl pH 7.5, 100 mM NaCl, 0.1% LDAO on graphene oxide grids, no crosslinking; subunits counted in en-face 2D class averages without rotational symmetry averaging; 3D maps with C32, C33, C34 (RBM3), C21, C22 (RBM2 inner) and C11 symmetry

B1: FliF (subunit of the flagellar MS-ring) (natural protein)
chain: MSATASTATQPKPLEWLNRLRANPRIPLIVAGSAAVAIVVAMVLWAKTPDYRTLFSNLSDQDGGAIVAQLTQMNIPYRFANGSGAIEVPADKVHELRLRLAQQGLPKGGAVGFELLDQEKFGISQFSEQVNYQRALEGELARTIETLGPVKSARVHLAMPKPSLFVREQKSPSASVTVTLEPGRALDEGQISAVVHLVSSAVAGLPPGNVTLVDQSGHLLTQSNTSGRDLNDAQLKFANDVESRIQRRIEAILSPIVGNGNVHAQVTAQLDFANKEQTEEHYSPNGDASKATLRSRQLNISEQVGAGYPGGVPGALSNQPAPPNEAPIATPPTNQQNAQNTPQTSTSTNSNSAGPRSTQRNETSNYEVDRTIRHTKMNVGDIERLSVAVVVNYKTLADGKPLPLTADQMKQIEDLTREAMGFSDKRGDTLNVVNSPFSAVDNTGGELPFWQQQSFIDQLLAAGRWLLVLVVAWILWRKAVRPQLTRRVEEAKAAQEQAQVRQETEEAVEVRLSKDEQLQQRRANQRLGAEVMSQRIREMSDNDPRVVALVIRQWMSNDHE
notes: FliF, flagellar M-ring protein, Salmonella enterica serovar typhimurium; Homo-oligomeric ring; 33 subunits is the most common stoichiometry (~80% of particles), 34 ~15%, 32 ~5%; No tag is mentioned; The built models cover only residues 228-438 (RBM3 and beta-collar, PDB 8FTF) and Gln-125 to Gly-227 (RBM2 inner, PDB 8FTE); also called post-assembly MS-ring; FliF protomer; source: E. coli …
  stoichiometry N: 32 subunits and 33 subunits and 34 subunits
